As usually defined, the EC50 is the concentration at which the effect is half-maximal. Higher therefore signals lower potency in that assay. For orientation: Kd means the free concentration of one partner at which half of the binding sites on the other are occupied at equilibrium, for simple one-to-one binding. Lower therefore signals tighter binding.

These results are taken from patent publication US20240182563A1 (GENOME, published 2024).

Where only a bound is given, the exact number is not on record here.

For one assay, the target named is T1, mouse CNTN4-10xHis (mouse, UniProt Q69Z26 19-1000).
T1 sequence: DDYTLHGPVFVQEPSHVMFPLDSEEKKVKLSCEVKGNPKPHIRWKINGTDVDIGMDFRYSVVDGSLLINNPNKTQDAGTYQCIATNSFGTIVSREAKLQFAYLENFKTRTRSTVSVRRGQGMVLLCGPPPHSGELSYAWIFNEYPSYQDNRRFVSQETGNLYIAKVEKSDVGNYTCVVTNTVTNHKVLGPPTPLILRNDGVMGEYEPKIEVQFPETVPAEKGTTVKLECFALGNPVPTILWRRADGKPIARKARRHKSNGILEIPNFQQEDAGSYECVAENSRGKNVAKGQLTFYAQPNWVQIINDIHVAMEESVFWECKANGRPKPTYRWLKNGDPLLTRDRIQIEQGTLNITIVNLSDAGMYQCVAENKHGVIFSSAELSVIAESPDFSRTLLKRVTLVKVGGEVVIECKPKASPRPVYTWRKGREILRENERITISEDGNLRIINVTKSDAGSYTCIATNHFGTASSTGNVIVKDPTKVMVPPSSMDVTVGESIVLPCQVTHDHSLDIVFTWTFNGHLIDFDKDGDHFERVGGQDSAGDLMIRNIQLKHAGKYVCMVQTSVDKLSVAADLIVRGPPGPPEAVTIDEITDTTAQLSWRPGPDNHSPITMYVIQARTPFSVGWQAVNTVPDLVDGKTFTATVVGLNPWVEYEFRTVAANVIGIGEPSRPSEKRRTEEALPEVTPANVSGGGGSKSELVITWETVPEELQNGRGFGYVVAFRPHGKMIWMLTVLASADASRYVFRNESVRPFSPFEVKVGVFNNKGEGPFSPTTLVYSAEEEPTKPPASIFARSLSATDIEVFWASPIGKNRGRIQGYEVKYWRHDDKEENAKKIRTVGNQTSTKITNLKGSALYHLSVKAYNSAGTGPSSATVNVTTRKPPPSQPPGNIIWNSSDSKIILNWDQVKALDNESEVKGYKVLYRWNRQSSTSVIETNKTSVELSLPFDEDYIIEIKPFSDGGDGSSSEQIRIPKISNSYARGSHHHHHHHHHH
Put plainly: ELISA, plate coated with CNTN4-10xHis, anti-human Fc-HRP. The method, then:
(§1) The LAH2, L1H2, and L2H2 antibodies prepared in Example 3.1 were subjected to an ELISA test together with A-01. An ELISA plate was coated with 200 ng of antigens (human CNTN4-10xHis or mouse CNTN4-10xHis). For antibody binding, antibodies were serially diluted from a maximum of 1 μM to 0.0001 nM, thereby binding to the antigen. Anti-human Fc-HRP was used as a secondary antibody for antibody detection. Color was developed using ABTS, which is a color developing reagent, and the absorbance at 405 nm was measured.
(In general: An ELISA detects its analyte on a solid surface through an enzyme-linked reagent.)

A further assay concerns the target T2, human CNTN4-10xHis (human, UniProt Q8IWV2 19-1000).
T2 sequence: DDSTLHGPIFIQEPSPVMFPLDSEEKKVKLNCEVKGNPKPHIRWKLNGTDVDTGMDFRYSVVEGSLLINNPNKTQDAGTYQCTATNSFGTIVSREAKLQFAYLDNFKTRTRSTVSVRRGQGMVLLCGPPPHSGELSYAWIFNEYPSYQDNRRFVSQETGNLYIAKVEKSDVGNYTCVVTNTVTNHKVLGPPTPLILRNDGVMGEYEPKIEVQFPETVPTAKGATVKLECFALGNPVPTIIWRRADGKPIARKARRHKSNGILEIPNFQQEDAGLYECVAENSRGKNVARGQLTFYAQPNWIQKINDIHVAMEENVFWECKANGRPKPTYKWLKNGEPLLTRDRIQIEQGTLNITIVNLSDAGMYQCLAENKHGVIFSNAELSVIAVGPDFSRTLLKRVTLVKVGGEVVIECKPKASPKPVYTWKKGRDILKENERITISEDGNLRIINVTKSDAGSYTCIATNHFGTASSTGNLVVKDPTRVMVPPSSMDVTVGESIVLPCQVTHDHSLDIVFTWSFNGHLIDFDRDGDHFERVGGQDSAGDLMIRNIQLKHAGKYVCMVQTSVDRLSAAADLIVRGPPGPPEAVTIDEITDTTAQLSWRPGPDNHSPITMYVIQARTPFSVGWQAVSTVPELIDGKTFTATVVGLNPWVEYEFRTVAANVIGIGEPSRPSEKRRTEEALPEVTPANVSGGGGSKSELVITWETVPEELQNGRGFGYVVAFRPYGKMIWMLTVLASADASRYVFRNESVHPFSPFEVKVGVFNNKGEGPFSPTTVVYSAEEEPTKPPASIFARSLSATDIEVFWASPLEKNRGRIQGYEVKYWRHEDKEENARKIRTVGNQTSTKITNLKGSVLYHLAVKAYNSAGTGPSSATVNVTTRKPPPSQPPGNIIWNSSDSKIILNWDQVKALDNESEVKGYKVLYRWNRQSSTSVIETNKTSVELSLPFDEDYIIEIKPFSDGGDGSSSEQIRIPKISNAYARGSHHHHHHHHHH
Described as above. The method, then:
as §1

Another assay concerns the target T3, Human CNTN-4 protein (human, UniProt Q8IWV2 19-1000, limits assumed).
T3 construct: soluble antigen run over the captured antibody; also called human CNTN4 (SPR analyte)
T3 sequence (looked up): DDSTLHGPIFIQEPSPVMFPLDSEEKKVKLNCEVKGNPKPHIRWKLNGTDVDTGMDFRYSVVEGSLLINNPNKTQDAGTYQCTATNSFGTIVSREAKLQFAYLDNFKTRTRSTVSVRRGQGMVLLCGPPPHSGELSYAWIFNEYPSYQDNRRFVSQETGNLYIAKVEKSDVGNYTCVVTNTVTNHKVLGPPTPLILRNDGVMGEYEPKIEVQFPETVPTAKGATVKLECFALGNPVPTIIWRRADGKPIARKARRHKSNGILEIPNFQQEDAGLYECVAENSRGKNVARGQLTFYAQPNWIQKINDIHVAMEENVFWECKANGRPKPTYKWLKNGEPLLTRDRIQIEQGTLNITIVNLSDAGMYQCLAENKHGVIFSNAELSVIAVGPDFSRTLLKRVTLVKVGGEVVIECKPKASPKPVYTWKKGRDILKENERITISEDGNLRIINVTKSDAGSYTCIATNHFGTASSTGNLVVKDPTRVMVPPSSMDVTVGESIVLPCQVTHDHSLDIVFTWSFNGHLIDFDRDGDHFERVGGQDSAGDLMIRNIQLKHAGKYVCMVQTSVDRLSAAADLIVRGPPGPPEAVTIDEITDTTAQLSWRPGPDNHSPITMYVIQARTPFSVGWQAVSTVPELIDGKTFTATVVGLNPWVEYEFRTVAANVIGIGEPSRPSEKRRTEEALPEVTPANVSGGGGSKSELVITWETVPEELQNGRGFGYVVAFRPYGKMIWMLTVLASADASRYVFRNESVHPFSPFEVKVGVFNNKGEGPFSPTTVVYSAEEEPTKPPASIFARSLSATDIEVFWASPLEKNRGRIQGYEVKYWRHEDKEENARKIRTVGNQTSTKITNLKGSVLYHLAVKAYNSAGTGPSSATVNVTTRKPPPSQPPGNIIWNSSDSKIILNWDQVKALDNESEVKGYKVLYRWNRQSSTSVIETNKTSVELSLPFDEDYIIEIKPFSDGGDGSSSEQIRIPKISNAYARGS
Put plainly: SPR, antibody captured by anti-human IgG Fc on CM5 chip, CNTN4 as analyte. The method, then:
An SPR test was performed on L1H2, which is most humanized at about 98%, among the antibodies prepared in Example 3.1. More specifically, in order to bind anti-human IgG Fc (capture antibody) using amine coupling, CM5 chip was mounted, running buffer was allowed to flow, the chip was activated, and then capture antibody was attached thereto. Dextrin to which capture antibody was not attached was deactivated using ethanolamine, and then regeneration was performed using 3M magnesium chloride to clear analyte except capture antibody. The L1H2 prepared at a concentration of 0.05 μg/mL was allowed to flow for 30 seconds at a rate of 10 μL/min for binding. Thereafter, human CNTN4 (400 nM to 0.78 nM) prepared by sequential dilution as an antigen was allowed to flow at a rate of 30 μL/min for 3 minutes to be bound, and dissociation was performed for 5 minutes. Then, in order to clear all analytes attached to the capture antibody, a regeneration solution (3M magnesium chloride) was allowed to flow at a rate of 20 μL/min for 30 seconds, and regeneration was performed. For each concentration of antigen, binding of L1H2, binding of antigen, dissociation, and regeneration were repeated in order.

B1: anti-CNTN4 humanized antibody LAH2 (antibody, V domains shown)
VH: EVQLLESEGGLVQPGGSLRLSCAASGFTFSSFNMFWVRQAPGKGLEWVAEISGGGGSTWYAPAVKGRATISRDNSKNTVYLQMNSLRAEDTAVYYCAKSADTWSYGAATIDAWGQGTLVTVSS
VL: ALTQPSSVSANLGETVKITCSGSSGSYGWYQQKSPGSAPVTLIYDNTNRPSDIPSRFSGSGSGSTGTLTITGVRAEDEAVYYCGGYDGSTDVFGAGTTLTVL
notes: in the form of IgG4
As for B1, the EC50 with mouse CNTN4-10xHis and with human CNTN4-10xHis was 0.017 nM in each case.

B2: anti-CNTN4 humanized antibody L1H2 (antibody, V domains shown)
VH: EVQLLESEGGLVQPGGSLRLSCAASGFTFSSFNMFWVRQAPGKGLEWVAEISGGGGSTWYAPAVKGRATISRDNSKNTVYLQMNSLRAEDTAVYYCAKSADTWSYGAATIDAWGQGTLVTVSS
VL: ELTQDPAVSVALGQTVRITCSGSSGSYGWYQQKPGQAPVLVIYDNTNRPSGIPDRFSGSSSGNTASLTITGAQAEDEADYYCGGYDGSTDVFGGGTKLTVL
notes: in the form of IgG4
Turning to B2, in the assay with mouse CNTN4-10xHis, the midpoint of the response, the EC50, lay at 0.029 nM and the “fold difference in binding ability against A-01” value was at most 3 times. In the assay with human CNTN4-10xHis, it took 0.028 nM to reach a half-maximal effect (EC50) and the “fold difference in binding ability against A-01” value is at most 3 times. Also, the Kd with Human CNTN-4 protein is 93.2 nM.

B3: anti-CNTN4 humanized antibody L2H2 (antibody, V domains shown)
VH: EVQLLESEGGLVQPGGSLRLSCAASGFTFSSFNMFWVRQAPGKGLEWVAEISGGGGSTWYAPAVKGRATISRDNSKNTVYLQMNSLRAEDTAVYYCAKSADTWSYGAATIDAWGQGTLVTVSS
VL: ELTQDPAVSVALGQTVRITCSGSSGSYGWYQQKPGQAPVTLIYDNTNRPSGIPDRFSGSSSGSTGSLTITGAQAEDEADYYCGGYDGSTDVFGGGTKLTVL
notes: in the form of IgG4
Regarding B3, the 50% effective concentration (EC50) with mouse CNTN4-10xHis is 0.019 nM; with human CNTN4-10xHis it was 0.018 nM.
